Reference: PMC5881448 (The Journal of General Physiology, 2018)
Where no end group is shown, it is not given here.

What was measured:
[1] = biological target: mEAG1 intrinsic-ligand peptide (mEAG1#696–702), fluorescein-labeled (mouse); experiment: fluorescence polarisation
[2] = biological target: hERG1 intrinsic-ligand peptide (hERG1#857–863), fluorescein-labeled (human) (UniProt Q12809); experiment: fluorescence polarisation
zELKΔ740–742 channels = type: cell-based, Danio rerio; conditions: inside-out patches, X. laevis oocytes, with or without MgATP

UniProt Q12809, sequence (Q12809 whole entry, looked up, tested part not stated): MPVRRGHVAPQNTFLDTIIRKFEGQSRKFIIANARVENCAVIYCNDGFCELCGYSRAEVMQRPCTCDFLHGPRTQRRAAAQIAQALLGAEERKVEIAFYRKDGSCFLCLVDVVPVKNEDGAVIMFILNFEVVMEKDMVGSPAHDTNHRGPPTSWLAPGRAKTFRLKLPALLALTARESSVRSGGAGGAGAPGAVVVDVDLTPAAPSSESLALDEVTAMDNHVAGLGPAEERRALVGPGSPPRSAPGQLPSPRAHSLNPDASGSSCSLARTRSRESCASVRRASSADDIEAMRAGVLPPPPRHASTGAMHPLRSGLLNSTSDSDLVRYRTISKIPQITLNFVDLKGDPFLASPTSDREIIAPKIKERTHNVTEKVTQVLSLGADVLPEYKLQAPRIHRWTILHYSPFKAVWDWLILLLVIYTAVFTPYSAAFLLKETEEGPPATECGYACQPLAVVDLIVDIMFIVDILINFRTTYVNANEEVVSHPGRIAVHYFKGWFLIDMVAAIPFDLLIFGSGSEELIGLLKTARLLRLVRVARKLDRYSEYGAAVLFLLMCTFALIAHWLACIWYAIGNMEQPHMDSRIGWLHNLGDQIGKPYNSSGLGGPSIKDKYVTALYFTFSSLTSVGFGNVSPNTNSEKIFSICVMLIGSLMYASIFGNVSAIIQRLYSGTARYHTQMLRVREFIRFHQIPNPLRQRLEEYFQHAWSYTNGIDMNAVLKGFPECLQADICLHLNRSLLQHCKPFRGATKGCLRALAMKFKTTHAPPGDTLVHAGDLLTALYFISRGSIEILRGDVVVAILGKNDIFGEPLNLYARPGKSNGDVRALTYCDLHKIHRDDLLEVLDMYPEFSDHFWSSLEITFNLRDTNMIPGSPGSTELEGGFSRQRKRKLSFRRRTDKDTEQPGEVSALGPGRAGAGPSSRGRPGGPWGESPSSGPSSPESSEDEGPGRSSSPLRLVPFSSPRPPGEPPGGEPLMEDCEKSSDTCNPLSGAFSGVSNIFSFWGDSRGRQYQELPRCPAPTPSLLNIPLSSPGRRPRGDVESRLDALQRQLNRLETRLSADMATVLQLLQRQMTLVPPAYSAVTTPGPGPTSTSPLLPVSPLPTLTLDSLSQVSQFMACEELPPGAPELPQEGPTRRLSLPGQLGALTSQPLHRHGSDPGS

Kd [1] [µM]	Substance	Kd [2] [µM]	modulation of zELKΔ740–742 channels regardless of MgATP (zELKΔ740–742 channels)
85	MBP–C-linker/CNBHD of zELK channel (Q543–L750), wild type (domain or fragment)		
37	MBP–C-linker/CNBHDΔ740–742 of zELK channel (Q543–L750 without Y740–L742) (domain or fragment)	90	
	hERG1 peptide: intrinsic-ligand peptide from hERG1 channels (#857–863) (EITFNLR; also: fluorescein label, position not given here)		did not produce an appreciable amount of modulation
